Data reported in article PMC6356446, “Involvement of N-glycan in Multiple Receptor Tyrosine Kinases Targeted by Ling-Zhi-8 for Suppressing HCC413 Tumor Progression” (Cancers, 2018).

What was measured:
Assay in all cases: cell-based or functional assay
[1] = target: c-Met (human (endogenous in HCC413), UniProt P08581 25-1390, N-glycans (sites not given))
[2] = target: HER3 (human (endogenous in HCC413), UniProt P21860 20-1342, N-glycans (sites not given))
[3] = target: EGFR (human (endogenous in HCC413), UniProt P00533 25-1210, N-glycans (sites not given))

c-Met, sequence (P08581 25-1390): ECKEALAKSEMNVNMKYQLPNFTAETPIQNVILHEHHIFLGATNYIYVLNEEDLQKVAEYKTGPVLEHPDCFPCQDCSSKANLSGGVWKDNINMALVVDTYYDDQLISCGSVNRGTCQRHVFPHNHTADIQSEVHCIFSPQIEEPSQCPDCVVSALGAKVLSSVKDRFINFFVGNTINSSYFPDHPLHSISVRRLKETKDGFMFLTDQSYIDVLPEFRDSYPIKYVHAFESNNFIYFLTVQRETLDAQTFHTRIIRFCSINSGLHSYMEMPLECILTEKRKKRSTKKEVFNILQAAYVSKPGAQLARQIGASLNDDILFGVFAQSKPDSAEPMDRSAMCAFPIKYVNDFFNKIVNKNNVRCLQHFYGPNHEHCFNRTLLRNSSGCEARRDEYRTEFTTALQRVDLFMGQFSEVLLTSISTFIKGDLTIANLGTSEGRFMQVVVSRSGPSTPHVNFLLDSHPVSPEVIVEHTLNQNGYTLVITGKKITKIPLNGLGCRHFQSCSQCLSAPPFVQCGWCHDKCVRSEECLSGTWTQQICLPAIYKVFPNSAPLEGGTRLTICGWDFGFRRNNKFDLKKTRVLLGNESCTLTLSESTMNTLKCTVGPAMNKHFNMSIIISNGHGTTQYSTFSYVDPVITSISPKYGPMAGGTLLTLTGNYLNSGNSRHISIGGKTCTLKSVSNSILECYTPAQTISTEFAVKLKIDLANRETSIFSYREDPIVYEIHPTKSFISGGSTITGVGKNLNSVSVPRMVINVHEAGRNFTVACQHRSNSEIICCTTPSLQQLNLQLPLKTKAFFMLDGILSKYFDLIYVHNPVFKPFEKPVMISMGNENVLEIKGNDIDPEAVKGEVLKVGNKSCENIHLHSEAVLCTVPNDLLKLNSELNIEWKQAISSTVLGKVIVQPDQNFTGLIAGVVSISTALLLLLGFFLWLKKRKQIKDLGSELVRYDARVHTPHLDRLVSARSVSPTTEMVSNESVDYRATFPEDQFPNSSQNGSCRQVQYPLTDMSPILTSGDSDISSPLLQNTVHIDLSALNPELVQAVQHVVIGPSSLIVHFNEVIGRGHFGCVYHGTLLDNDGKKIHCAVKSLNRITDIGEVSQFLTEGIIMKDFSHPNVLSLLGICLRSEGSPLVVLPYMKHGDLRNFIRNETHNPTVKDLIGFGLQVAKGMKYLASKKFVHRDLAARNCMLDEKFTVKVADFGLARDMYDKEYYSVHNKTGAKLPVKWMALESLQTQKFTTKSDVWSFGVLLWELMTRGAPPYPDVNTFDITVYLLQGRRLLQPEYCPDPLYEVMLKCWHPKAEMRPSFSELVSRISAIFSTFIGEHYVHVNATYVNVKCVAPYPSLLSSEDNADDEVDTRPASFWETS
HER3, sequence (P21860 20-1342): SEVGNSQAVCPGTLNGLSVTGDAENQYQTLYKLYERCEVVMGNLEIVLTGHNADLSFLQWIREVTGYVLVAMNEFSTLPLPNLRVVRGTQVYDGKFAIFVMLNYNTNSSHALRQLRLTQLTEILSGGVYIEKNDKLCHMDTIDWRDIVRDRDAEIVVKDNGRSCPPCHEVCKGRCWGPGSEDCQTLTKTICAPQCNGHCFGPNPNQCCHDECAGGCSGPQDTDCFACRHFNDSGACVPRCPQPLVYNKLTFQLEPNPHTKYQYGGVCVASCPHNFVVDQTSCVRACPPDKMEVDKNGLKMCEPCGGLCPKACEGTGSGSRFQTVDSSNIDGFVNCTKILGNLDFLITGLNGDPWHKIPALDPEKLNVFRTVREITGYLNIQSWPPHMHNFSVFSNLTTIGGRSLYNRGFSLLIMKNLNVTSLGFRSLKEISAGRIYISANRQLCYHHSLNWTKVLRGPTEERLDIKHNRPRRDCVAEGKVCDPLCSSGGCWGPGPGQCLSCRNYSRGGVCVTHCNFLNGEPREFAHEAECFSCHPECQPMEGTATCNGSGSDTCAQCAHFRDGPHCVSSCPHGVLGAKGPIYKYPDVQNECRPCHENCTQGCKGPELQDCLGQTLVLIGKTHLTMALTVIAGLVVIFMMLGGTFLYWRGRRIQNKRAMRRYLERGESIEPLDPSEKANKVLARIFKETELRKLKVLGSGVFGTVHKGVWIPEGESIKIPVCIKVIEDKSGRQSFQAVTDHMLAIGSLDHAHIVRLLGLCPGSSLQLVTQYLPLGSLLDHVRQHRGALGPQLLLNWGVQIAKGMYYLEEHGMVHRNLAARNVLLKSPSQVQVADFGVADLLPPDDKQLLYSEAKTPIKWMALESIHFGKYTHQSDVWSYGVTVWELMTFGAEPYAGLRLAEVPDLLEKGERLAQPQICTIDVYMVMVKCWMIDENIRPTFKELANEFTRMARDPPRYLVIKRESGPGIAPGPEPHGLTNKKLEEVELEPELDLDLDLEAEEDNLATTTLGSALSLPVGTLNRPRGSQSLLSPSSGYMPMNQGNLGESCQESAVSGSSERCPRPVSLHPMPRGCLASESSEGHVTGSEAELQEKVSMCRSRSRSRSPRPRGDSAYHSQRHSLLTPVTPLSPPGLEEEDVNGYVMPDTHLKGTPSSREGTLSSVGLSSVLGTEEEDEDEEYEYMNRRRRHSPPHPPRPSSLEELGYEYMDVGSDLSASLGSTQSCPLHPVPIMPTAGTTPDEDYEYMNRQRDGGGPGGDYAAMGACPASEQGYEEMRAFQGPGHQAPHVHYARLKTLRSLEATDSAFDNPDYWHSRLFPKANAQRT

B1: Ling-Zhi-8 (natural protein, Ganoderma lucidium, UniProt P14945 1-111, looked up)
chain: MSDTALIFRLAWDVKKLSFDYTPNWGRGNPNNFIDTVTFPKVLTDKAYTYRVAVSGRNLGVKPSYAVESDGSQKVNFLEYNSGYGIADTNTIQVFVVDPDTNNDFIIAQWN
75%: phosphorylated c-jun in HCC413, LZ-8 0.2 and 0.8 uM, 24 h; Western blot [1] | phosphorylated c-jun in HCC413, LZ-8 0.2 and 0.8 uM, 24 h; Western blot [2] | phosphorylated c-jun in HCC413, LZ-8 0.2 and 0.8 uM, 24 h; Western blot [3]
50%: phosphorylated JNK in HCC413, LZ-8 0.2 and 0.8 uM, 24 h; Western blot [1] | phosphorylated JNK in HCC413, LZ-8 0.2 and 0.8 uM, 24 h; Western blot [2] | phosphorylated JNK in HCC413, LZ-8 0.2 and 0.8 uM, 24 h; Western blot [3]
85 to 90%: decrease in phosphorylated ERK in HCC413, LZ-8 0.2 and 0.8 uM, 24 h; Western blot [1] | decrease in phosphorylated ERK in HCC413, LZ-8 0.2 and 0.8 uM, 24 h; Western blot [2] | decrease in phosphorylated ERK in HCC413, LZ-8 0.2 and 0.8 uM, 24 h; Western blot [3]
